Laboratory results as given in the nanobody polyreactivity screen of Harvey et al. (2022).

Assay: yeast display, Sf9 membrane polyspecificity reagent, FACS + sequencing; frameworks hold sequencing errors
How it was run: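 Genes from sorted yeast were amplified by colony PCR, read by MiSeq 2 × 250 sequencing and filtered on CDR length. These cells carried a synthetic nanobody library in Saccharomyces cerevisiae BJ5465 and were sorted by FACS into low and high (top ~1%) gates on anti-HA and streptavidin fluorescence. Polyreactivity is labelled according to the gate of origin.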

Sequence | polyreactivity (PSR sort gate)
QVQLVESGGGLVQAGGSLRLSCAASGFIFESNAMGWYIQAPGKERELVATITNGDRTYYADSVNGRFTISRDNAKNTVYLQMNSLKPEDTAVYYCNADFRAREVFLFDSWGQGTQVTVSS | low polyreactivity
QVQLVESGGGLVQAGGSLRLSCAASGSIFRVYAMGWYRQAPGKERELVAVGSTYYADSVKGRFTISRDNAKNTVYLQMNSLKPEDTAVYYCARRGKSRYSYHYWGQGTQVTVSS | high polyreactivity
QVQHVESGGGLVQAGGSLRLRCAASGITSRYNDMGWSRQAPGKERELVATITWRGVSTYYADSVKGRFTISRDNAKNTVYVQMNSLKPEDTAVYYCAARRPGYYPYKGFDYWGQGTQVTVSS | high polyreactivity
QVQLVESGGGLVQAGGSLRLSCAASGIIFQRNAMGWYRQAPGKERELVAAISASGGSTNYADSVKGRFTISRDNAKNTVYLQMNSLKPEDTAVYYCAVPARGTFLLRDGGRAEFDYWGQGTQVTVSS | low polyreactivity
QVQLVESGGGLVQAGGSLRLSCAASGGTFAYYAMGWYRQAPGKERELVAVISRRGTSTYYADSVKGRFTISRDNAKNTVYLQMNSLKPEDTAVYYCNARTWDHPYGYWGQGTQVTVSS | high polyreactivity
QVQLVDSGGGLVQAGGILRLSCPASGLIIRKNAMGWYRQAPGKERELVAAISYNGASTYYADSVKGRFTISRDNAKNTVYLQMNSLKPEDTAVYYCAAYAGYSDQARYYYWGQGTQVTVSS | high polyreactivity
QVQLVESGGGLVQAGGSLRLSCAASGFIFARYAMGWYRQAPGKERELVASITRRGGSTYYADSVKGRFTISRDYEKITVYLQMNSLKPEDTAVYYCARPNLLSGDYWGQGTQVTVSS | high polyreactivity
QVQLVESGGGLVQAGGSLRLSCAASGSTSYFNVMGWYRQAPGKERELVAAISWSGGSTYADSVKGRFTISRDNAKNTVYLQMNSLKPEDTAVYYCNKDYGYVQLRFYGPGYYWGQGTQVTVSS | low polyreactivity
QVQLVESGGGLVQAGGSLRLSCAASGFTFGRYAMGWYRQAPGKERELVAAITWSGGTTTYYADSVKGRFTISRDNAKNTVYLQMTSLKPEDTAVYYCAADLYFYIYSYNYWGQGTQVTVSS | low polyreactivity
QVQLVESGGGLVQAGGSLRLSCAASGRTFGGYAMGWYRQAPGKERELVAAISYSGGSTYYADSVKGRFTISRDNAKNTVYLQMNSLKPEDTAVYYCAADGYDAYYWGQGTQVTVSS | low polyreactivity
QVQLVESGGGLVQAGGSLRLSCAASGSTFFPYAMGWYRQAPGKERELVADITYSGASTYYADSVKGRFTISRDNAKNTVYLQMNSLKPEDTAVYYCAALVWYGYYSLGQGTQVTVSS | low polyreactivity
QVQLVESGGGLVQAGGSLRLSCAASGLIFYDNMGWYRQAPGKERELVAAISSSGGSTSYADSVKGRFTISRDNAKKTVYLQMNSLKPEDTAVYYCAAKWSHVRDGPKYDYWGQGTQVTVSS | low polyreactivity
QVQLVESGGGLVQAGGSLRLSCSASGRTFGYNAMGWYRQAPGKEWELVAAIRTIGDSTYYADSVKGRFTISRDNAKNTVYLQMNSLKPEDTAVYYCAARNLRSRYDYWGQGTQVTVSS | high polyreactivity
QVQLVETGRGLVQAGGSLRLSCAASGLILVPNTMGWYRQAPGTERELVAAISYSGGGPYYADSVKGRFTLSRDNATNTVYLQMNSLKPEDTAVYSCAAYDKRESPPYGYWGQGTQVTVSS | low polyreactivity
QVQLVESGGGLVQAGGSLRLSCAASGNTFVFYAMGWYRQAPGKERELVAAIDTGGTTNYADSVKGRFTISRDNAKNTVYLQMNSLKPEDTAVYYCAKRRLYWSGQGWVRTYGYWGQGTQVTVSS | high polyreactivity
QVQLVESGGGLVQAGGSLRLSCAASGNIFGVDAMGWYRQAPGKERELVATITTGGSTYYADSVKGRFTISRDNAKNTVYLQMNSLKPADTAVYYCAADVGGGNYVYYGNDYDDGYWGQGTQVTVSS | low polyreactivity

Sequence | polyreactivity (PSR sort gate)
QVQLVESGGGLVQAGGSLRLSCAASGFNFYYYAMGWYRQAPGKERELVAVLTESGSSTYYADSVKGRFTISRDNAKNTVYLQMNSLKPEDSAVYYCNADFWPFTGKYDSVHLDYWGQATQVTVSS | low polyreactivity
QVQLVESGGGLVQGGGSLRLSCAASGRTFQTNVMGWYRPAPGKERELVAAITLSGGSTNYADSVKGRFTISRDNAKNTVYVQMNSLKPEDTAVYYCNAERRYRHQWTPHYEYDYWGQGTQVSVSS | low polyreactivity
QVQLVESGGGLVQAGGSLRLSCAASGFTIRNNAMGWYRQAPGKERELVAAISYSGGSTYYADSVKGRFTISRDNAKNTVYLQMNSLKPEDTAVYYCNRRRWSYLEYDYWGQGTQVTVSS | low polyreactivity
QVQLVESGGGLVQAGGSLRLSCAASGTTFSRYAMGWYRQAPGKEREFVAAISRRAGGTYYADSVKGRFTISRDNAKNTVYLQMNSLKPEDTAVYYCAKVLPRDYIGRATYDYWGQGTQVTVSS | high polyreactivity
QVQLVESGGGLVQAGGSLRLSCAASGGIAGNTMGWYRQAPGKERELVAAITRSGGRTYYADSVKGRFTISRDNAKNTVYLQMNSLKPEDTAVYYCAVTGLVRRRYGYWGQGTQVTVSS | high polyreactivity
HVQLVESGGGLVQAGGSLRLSCAASGFTFDAYAMGWYRQAPGKERELVAAISFSGGSTYYADSVKGRFTISRDNAKNTVYLQMNSLKPEDTAVYYCAAYSYTRTYGRHNYWGQGTQVTVSS | high polyreactivity
QVQLVESGGGLVQAGGSLRFSCAASGYTVGDYAMGSYRQAPGKERELVAVITRNGGRTYYADSVKGRFTISRDNAKNTVYLQMNSLKPEDTAVYYCNRDTSIRHYNYWGQGTQVTVSS | high polyreactivity
QVQLVESGGGLVQAGGSLRLSCAASGSIFKQNNMGWYRQAPGKERELVAAISSGGSTYYADSVKGRFTISRDNAKNTVYLQMNSLKPEDTAVYYCAKYYDWDYYLPLEGDYWGQGTQVTVSS | low polyreactivity
QDQHVESGGGLVQAGGSLRLSCAASARIFVPYAMGWYRQAPGQERELVAAFSWRGGSTNYADSVKGRFTISRDNAKNTVYLQLNSLIPEDTAVYYCAAVPVRYRYSYGYYYWGQGTQVSVSS | high polyreactivity
QVQLVESGGGLVQAGGSLRLSCAASGSTFWHNAMGWYRTAHGKERELVAGISSIGGRTYYADSVKGRFTISRDNAKNTVYLQMNSLKQEDTAVYYCAARYRRTIPWFAPGTDHNYWGQGTQVTVSS | high polyreactivity
QVQLVESGGGLVQAGGSLRLSCAASGSTFRDYDMGWYRQAPGKERELVAAISRSGGRTYYADSVKGRFTISRDNAKNTVYLQMNSLKPEDTAVYYCAARRYTRRANPAYPYEYWGQGTQVTVSS | high polyreactivity
QVQIVESGGGLVQAGGSLRLSCAASGFTFLWYAMGWYRQAPGKERELVAAINSGGRTNYADSVKGRFTISRDNAKNTVYLQMNSLKPEDTAVYYCAKRRPLYAHPDDYWGQGTQVTVSS | low polyreactivity
QVQLVESGGGLVLAGGSLRLSCAASGRSFVSNALGWSRQAPGSDRELVARISNGASTDADSVKGRFTISRDNAKKTVYLQINSLKPEDTAVYYSAKTTRRGGVALGEYDYWGQLTQVTVSS | low polyreactivity
QVQLVESGGGLVQAGGSLRLSCAASGFIFGYNGMGWYRQAPGKERELVAYADSVKGRFTISRDNAKNTVYLQMNSLKPEDTAVYFCAADRGYVWRYDYWGQGTQVTVSS | low polyreactivity
QVQLVESGGGLVQAGGSLRLSCAASGSTFDPYAMGWYRQAPGKERELVATITYSGGRTYYADSVKGRFTISRDNAKNTVYLQMNSLKPEDTAVYYCAARVYTHYREFDYWGQGTQVTVSS | low polyreactivity
QVQLVESWGGLVQAGGSLRLSCAASGSTFASYVMGWSRQAPGKERELVAAISRSGGSTYYADSVKGRFTISRDNAKYTVYLQMNSLKPEDTAVYYCNAPYLIYKKGRYDYWGQGTQVTVSS | high polyreactivity
